{"source": "patent US20220204601A1", "about": "(ADEL, published 2022)", "note": "Ends that are not written are not given here."}
{"molecular_target": "T1, K280-ac protein fragment (human)", "T1 construct": "also called mAC", "T1 peptide": "VQIINK(Ac)KLDLSN", "experiment": "ELISA on K280-ac coated at 250 ng/well, HRP anti-human IgG", "description": "In addition, binding of the K280-ac protein fragment prepared in Preparation Example 1 with the ADEL-Y01h (v01 to v12) antibodies prepared in Preparation Example 2 was measured by ELISA.\nFirst, plates were treated with the K280-ac protein fragment at 250 ng/well and reaction was allowed to proceed at 4° C. overnight. The next day, washing with a washing buffer was performed three times, and then treatment with a primary antibody was performed with 8 concentrations (2 μg, 1 μg, 0.5 μg, 0.25 μg, 0.12 μg, 0.06 μg, 0.03 μg, 0.01 μg). As a secondary antibody, HRP-labeled anti-human IgG antibody was used."}
{"binder": "ADEL-Y01h v02 antibody (antibody, V domains shown, Humanized antibody; It was detected with anti-human IgG; also called Y01h01v02) VH: EVQLQESGPGLVKPSQTLSLTCTVSGDSITSGYWNWIRQPPGKGLEYIGYIRYSGRTYYNPSLKSRVTISRDTSKNQFSLKLSSVTAADTAVYYCASVYFTYWGQGTLVTVSS VL: DVVMTQSPDSLAVSLGERATINCKSSQSLLDSDGKTYLNWYQQKPGQSPKRLISLVSKLDSGVPDRFSGSGSGTDFTLTISSLQAEDVAVYYCWQGSHFPYTFGQGTKLEIK", "Absorbance at 450nm at 0.01ug/well": 0.103, "Absorbance at 450nm at 0.03ug/well": 0.203, "Absorbance at 450nm at 0.06ug/well": 0.377, "Absorbance at 450nm at 0.12ug/well": 0.805, "Absorbance at 450nm at 0.25ug/well": 1.12, "Absorbance at 450nm at 0.5ug/well": 1.61, "Absorbance at 450nm at 1ug/well": 1.83, "Absorbance at 450nm at 2ug/well": 2.08}
{"binder": "ADEL-Y01h v04 antibody (antibody, V domains shown, Humanized antibody; It was detected with anti-human IgG; also called Y01h01v04) VH: EVQLQQSGPGLVKPSQTLSLTCAVSGDSITSGYWNWIRQSPSRGLEWLGYIRYSGRTYYNPSLKSRITINRDTSKNQFSLQLNSVTPEDTAVYYCASVYFTYWGQGTLVTVSS VL: DVVMTQSPLSLPVTLGQPASISCKSSQSLLDSDGKTYLNWFQQRPGQSPKRLISLVSKLDSGVPDRFSGSGSGTDFTLKISRVEAEDVGVYYCWQGSHFPYTFGQGTKLEIK", "Absorbance at 450nm at 0.01ug/well": 0.354, "Absorbance at 450nm at 0.03ug/well": 0.537, "Absorbance at 450nm at 0.06ug/well": 0.822, "Absorbance at 450nm at 0.12ug/well": 1.43, "Absorbance at 450nm at 0.25ug/well": 1.74, "Absorbance at 450nm at 0.5ug/well": 2.04, "Absorbance at 450nm at 1ug/well": 2.18, "Absorbance at 450nm at 2ug/well": 2.32}
{"binder": "v12 (antibody, V domains shown, also called Y01h01v12; ADEL-Y01h v12 antibody) VH: EVQLVESGGGLVQPGRSLRLSCTVSGDSITSGYWNWFRQAPGKGLEYVGYIRYSGRTYYNPSLKSRFTISRDTSKNIAYLQMNSLKTEDTAVYYCASVYFTYWGQGTLVTVSS VL: EVVLTQSPGTLSLSPGERATLSCKSSQSLLDSDGKTYLNWYQQKPGQSPKRLISLVSKLDSGIPDRFSGSGSGTDFTLTISRLEPEDFAVYYCWQGSHFPYTFGQGTKLEIK", "Absorbance at 450nm at 0.01ug/well": 0.145, "Absorbance at 450nm at 0.03ug/well": 0.398, "Absorbance at 450nm at 0.06ug/well": 0.484, "Absorbance at 450nm at 0.12ug/well": 1.05, "Absorbance at 450nm at 0.25ug/well": 1.19, "Absorbance at 450nm at 0.5ug/well": 1.29, "Absorbance at 450nm at 1ug/well": 1.58, "Absorbance at 450nm at 2ug/well": 1.41}
{"binder": "ADEL-Y01h v03 antibody (antibody, V domains shown, Humanized antibody; It was detected with anti-human IgG; also called Y01h01v03) VH: EVQLQESGPGLVKPSQTLSLTCTVSGDSITSGYWNWIRQPPGKGLEYIGYIRYSGRTYYNPSLKSRVTISRDTSKNQFSLKLSSVTAADTAVYYCASVYFTYWGQGTLVTVSS VL: EVVLTQSPGTLSLSPGERATLSCKSSQSLLDSDGKTYLNWYQQKPGQSPKRLISLVSKLDSGIPDRFSGSGSGTDFTLTISRLEPEDFAVYYCWQGSHFPYTFGQGTKLEIK", "Absorbance at 450nm at 0.01ug/well": 0.0815, "Absorbance at 450nm at 0.03ug/well": 0.17, "Absorbance at 450nm at 0.06ug/well": 0.302, "Absorbance at 450nm at 0.12ug/well": 0.641, "Absorbance at 450nm at 0.25ug/well": 1.06, "Absorbance at 450nm at 0.5ug/well": 1.51, "Absorbance at 450nm at 1ug/well": 1.79, "Absorbance at 450nm at 2ug/well": 2.06}
